B2: His-tagged MUC1 cytoplasmic domain (other)
chain: CQCRRKNYGQLDIFPARDTYHPMSEYPTYHTHGRYVPPSSTDRSPYEKVSAGNGGSSLSYTNPAVAATSANL
notes: Purified recombinant protein; It forms oligomers; also called His-MUC1-CD; His-tagged MUC1-CD; not shown: His tag

Series [1] has as its target B2. The experiment in a line: BIAcore (SPR), His-MUC1-CD immobilized, peptide injected at 10 uM, 1:1 Langmuir fit. As for the experimental part: (§1) The N-terminal 15 amino acids (shaded sequence) MUC1/CQC and mutated MUC1/AQA peptides were synthesized with the poly-dArg transduction domain. (FIG. 1B) His-MUC1-CD (1.4 mg/ml) was immobilized on a sensor chip in a BIAcore. MUC1/CQC was injected over the chip at 10 μM. Raw binding data were analyzed by BIAevaluation software version 3.0 and fit to a 1:1 Languir binding model. (FIG. 1C) Purified His-MUC1-CD (1.5 mg/ml) was incubated with PBS, 200 μM MUC1/CQC or 200 μM MUC1/AQA for 1 h at room temperature. The proteins were separated in a non-reducing SDS-polyacrylamide gel and analyzed by immunoblotting with anti-MUC1-C. (FIG. 1D) 293 cells were transiently transfected to express an empty vector or GFP-MUC1-CD and Flag-MUC1-CD. At 48 h after transfection, the cells were treated with 5 μM MUC1/CQC or MUC1/AQA for 3 d. The cells were then harvested for immunoblotting with anti-MUC1-C (left panel). Whole cell lysates were also precipitated with anti-Flag and the precipitates were immunoblotted with the indicated antibodies (right panels).
Effects of the MUC1/CQC peptide on MUC1 oligomer formation. The MUC1 cytoplasmic domain (MUC1-CD) contains a CQC motif that is necessary for the formation of oligomers and nuclear localization (Leng et al., 2007). […] Purified His-tagged MUC1-CD forms oligomers as detected by electrophoresis in polyacrylamide gels (FIG. 1C).

Series [2] deals with the molecule itself. The experiment in a line: self-association of purified His-MUC1-CD (1.5 mg/ml); non-reducing SDS-polyacrylamide gel, immunoblot with anti-MUC1-C; incubated 1 h with PBS, 200 uM MUC1/CQC or 200 uM MUC1/AQA. As for the experimental part: as §1, with “Schematic representation of the MUC1-C subunit and the 72-amino acid sequence of MUC1-CD are shown. The N-terminal” for “The N-terminal”
For orientation: In western blotting, separated proteins are transferred to a membrane and probed.

Where no end group is shown, it is not given here.

This note sets out measurements from patent US20100125055A1 (Dana-Farber, published 2010).

B1: MUC1/CQC peptide (peptide)
peptide: CQCRRKNYGQLDIFP
modifications: cysteine pairing not given here; also: poly-D-Arg transduction domain, length and attachment end not given here
notes: Synthetic peptide (MIT Biopolymer Laboratory); also called CQC long (15-mer); not shown: The poly-D-Arg cell transduction domain
The Kd is the concentration at which binding is half-saturated. A higher Kd goes with weaker binding. Consider B1, for which, in series [1], binding was characterised by a dissociation constant (Kd) of 30 nM.
B2: the binding result in series [2] is on record as “binds”.
